Consider three substances from patent publication US20050208021.

Data set [1] has as its system T1, PhiC31 integrase wild type (Bacteriophage Phi-C31).
T1 sequence: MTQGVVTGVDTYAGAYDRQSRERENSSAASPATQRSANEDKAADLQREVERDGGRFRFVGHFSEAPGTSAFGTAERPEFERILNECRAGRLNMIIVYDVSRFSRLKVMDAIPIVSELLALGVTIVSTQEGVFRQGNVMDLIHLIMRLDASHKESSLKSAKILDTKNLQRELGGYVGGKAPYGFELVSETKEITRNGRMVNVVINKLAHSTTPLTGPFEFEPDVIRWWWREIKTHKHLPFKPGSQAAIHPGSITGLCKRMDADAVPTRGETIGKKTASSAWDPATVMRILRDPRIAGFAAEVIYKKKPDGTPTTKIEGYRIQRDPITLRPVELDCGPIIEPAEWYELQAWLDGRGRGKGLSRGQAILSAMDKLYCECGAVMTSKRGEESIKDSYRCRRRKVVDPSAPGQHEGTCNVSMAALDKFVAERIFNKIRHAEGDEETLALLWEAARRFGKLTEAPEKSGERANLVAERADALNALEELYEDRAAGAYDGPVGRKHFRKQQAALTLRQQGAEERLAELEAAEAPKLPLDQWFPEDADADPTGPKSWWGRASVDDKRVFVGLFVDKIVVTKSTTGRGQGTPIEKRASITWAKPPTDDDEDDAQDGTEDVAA
The data set is described as follows: cell_activity.

For data set [2], the system named is T2, PhiC31 integrase mutant 1C1 (Bacteriophage Phi-C31).
T2 sequence: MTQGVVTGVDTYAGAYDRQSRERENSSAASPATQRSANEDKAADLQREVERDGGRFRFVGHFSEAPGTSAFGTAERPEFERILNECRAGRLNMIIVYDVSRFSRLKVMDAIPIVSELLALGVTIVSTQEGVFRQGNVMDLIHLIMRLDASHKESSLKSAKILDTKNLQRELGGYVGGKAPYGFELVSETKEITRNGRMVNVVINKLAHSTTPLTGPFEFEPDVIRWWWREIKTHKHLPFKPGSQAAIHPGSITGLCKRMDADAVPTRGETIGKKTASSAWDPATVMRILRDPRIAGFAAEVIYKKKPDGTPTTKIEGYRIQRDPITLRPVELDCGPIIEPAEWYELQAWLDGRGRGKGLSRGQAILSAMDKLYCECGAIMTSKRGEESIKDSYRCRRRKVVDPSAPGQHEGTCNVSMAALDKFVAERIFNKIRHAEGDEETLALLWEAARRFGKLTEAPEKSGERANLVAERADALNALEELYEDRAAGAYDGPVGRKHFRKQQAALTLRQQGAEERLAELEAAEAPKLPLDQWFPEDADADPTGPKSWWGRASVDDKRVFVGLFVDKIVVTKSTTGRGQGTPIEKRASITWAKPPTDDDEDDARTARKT
The data set is described as follows: cell_activity. To be noted: attB donor integration into 293 genome.

Some results are limits rather than exact numbers.

For PhiC31 attB/attP in pBCPB+, the activity (% white colonies) in data set [1] (Drosophila S2 cells, +/-11.7, background 1.7) was found to be 47.8.
As for mouse pseudo attP mpsL1, the activity (% haploid genomes integrated) in data set [1] (mouse liver, partner attB, qPCR, +/-0.89) was found to be 1.8.
Take “CGATGTAGGTCACGGTCTCGAAGCCGCGGTGCGGGTGCCAGGGCGTGCCCTTGGGCTCCCCGGGCGCGTACTCCACCTCACCCATCTGGTCCATCATGATGAACGGGTCGAGGTGGCGGTAGTTGATCCCGGCGAACGCGCGGCGCACCGGGAAGCCCTCGCCCTCGAAACCGCTGGGCGCGGTGGTCACGGTGAGCACGGGACGTGCGACGGCGTCGGCGGGTGCGGATACGCGGGGCAGCGTCAGCGGGTTCTCGACGGTCACGGCGGGCATGTCGA (double strand) [PhiC31 attB full length]”: the activity (fold over background colonies) in data set [2] is over 10.
